This note sets out measurements from patent publication US20180155427A1 (Novartis, published 2018).

Where a chain is given by its changes, count along the chain named. Names may count otherwise.

Experiment [1] has as its target T1, human PD-1 expressed on cells (human, UniProt Q15116 25-288).
T1 construct: whole, on cells; Treated as one molecule; also called PD-1 expressing Jurkat cells; human PD-1 transfected Jurkat cells
Briefly: FACS competition binding on PD-1 expressing Jurkat cells; competitor: fluorescently labeled murine mAb BAP049; MFI of bound labeled mAb. The protocol:
The concentration of the murine mAb was determined by OD280 measurement, whereas the chimeric mAb concentrations in supernatants were determined with an ELISA using an IgG4 standard.

Experiment [2] has as its target T1, human PD-1 expressed on cells. The experiment is described as follows: competition binding assay on human PD-1-expressing 300.19 cells, competitor PD-L1; competitor PD-L1.
Experiment [3] deals with human PD-1-Ig fusion protein (human, UniProt Q15116 25-167). The experiment is described as follows: ELISA. A general note: ELISA stands for enzyme-linked immunosorbent assay.
Chain of human PD-1-Ig fusion protein (Q15116 25-167): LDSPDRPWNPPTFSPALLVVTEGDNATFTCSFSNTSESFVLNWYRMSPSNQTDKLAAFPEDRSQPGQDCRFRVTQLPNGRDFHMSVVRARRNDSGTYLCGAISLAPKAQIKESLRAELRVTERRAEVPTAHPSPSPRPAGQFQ
In experiment [4] the target is T2, cynomolgus PD-1 expressed on cells (cynomolgus, UniProt B0LAJ3 25-288).
T2 construct: also called cynomolgus T cells; cells transfected with cynomolgus PD-1
T2 sequence (B0LAJ3 entry or part of it limits assumed): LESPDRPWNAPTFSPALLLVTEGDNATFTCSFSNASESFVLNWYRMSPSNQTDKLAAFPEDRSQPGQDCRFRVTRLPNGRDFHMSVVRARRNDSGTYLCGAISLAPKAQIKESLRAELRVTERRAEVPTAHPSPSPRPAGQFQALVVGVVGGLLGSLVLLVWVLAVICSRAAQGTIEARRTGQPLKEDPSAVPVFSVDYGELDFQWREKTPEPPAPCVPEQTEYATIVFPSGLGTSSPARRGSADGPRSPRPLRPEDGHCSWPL
The experiment is described as follows: FACS on cynomolgus T cells.

The target in experiment [5] is T2, cynomolgus PD-1 expressed on cells. Briefly: FACS on cells transfected with cynomolgus PD-1.
The target in experiment [6] is T1, human PD-1 expressed on cells. Briefly: FACS on human PD-1 transfected Jurkat cells.
For experiment [7] the target is unchanged. Briefly: FACS blocking assay on PD-1-expressing 300.19 cells; blocked ligand at constant concentration: PD-L1-huIgG1 Fc fusion protein (legend paragraph 211 names 'PD-L1-Ig and PD-L2-Ig' for FIG. 8A); bound ligand detected with PE anti-human IgG F(ab')2. As to the method: Incubation was at 4° C. for 30 min. Bound ligand fusion proteins were detected with PE-conjugated F(ab′)2 fragment of goat anti-human IgG which doesn't recognize IgG4 mAbs (Southern Biotech 2043-09), and flow cytometry.

Experiment [8] shares this target. Briefly: competition binding assay on human PD-1-expressing 300.19 cells, competitor PD-L2; competitor PD-L2.
Experiment [9] has the same target. The experiment is described as follows: rank among the 16 humanized clones in competition with Alexa 488-labeled murine mAb BAP049 on PD-1-expressing 300.19 cells, first experiment. As to the method:
(§1) Incubations with the mAb mixtures having different concentration ratios of test mAb to labeled mAb was at 4° C. for 30 min. Bound labeled murine mAb was then quantified using a FACS machine. The experiment was performed twice.

Experiment [10] shares this target. The experiment is described as follows: rank among the 16 humanized clones in competition with Alexa 488-labeled murine mAb BAP049 on PD-1-expressing 300.19 cells, second experiment. As to the method:
as §1

Experiment [11] has the same target. Briefly: rank among the 16 humanized clones by FACS binding data on PD-1-expressing cells.

T1 sequence (Q15116 25-288): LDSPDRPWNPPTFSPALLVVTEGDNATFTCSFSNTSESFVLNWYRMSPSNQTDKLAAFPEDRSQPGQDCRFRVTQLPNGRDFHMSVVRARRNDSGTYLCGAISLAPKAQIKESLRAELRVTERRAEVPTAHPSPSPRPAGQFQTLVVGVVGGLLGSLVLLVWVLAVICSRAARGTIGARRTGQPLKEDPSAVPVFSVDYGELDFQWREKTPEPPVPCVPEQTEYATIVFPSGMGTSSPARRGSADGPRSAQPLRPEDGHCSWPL

B1: chimeric antibody BAP049-chi (Ser) (antibody, human IgG4 S228P, kappa, V domains shown)
VH: QVQLQQSGSELVRPGASVKLSCKASGYTFTTYWMHWVRQRPGQGLEWIGNIYPGTGGSNFDEKFKNRTSLTVDTSSTTAYMHLASLTSEDSAVYYCTRWTTGTGAYWGQGTTVTVSS
VL: DIVMTQSPSSLTVTAGEKVTMSCKSSQSLLDSGNQKNFLTWYQQKPGQPPKLLIFWASTRESGVPDRFTGSGSVTDFTLTISSVQAEDLAVYYCQNDYSYPSTFGQGTKVEIKR
notes: also called Chi mAb (Ser)
B1: in experiment [1], the binding result is recorded as “binds”.

B2: murine anti-PD-1 monoclonal antibody BAP049 (antibody, V domains shown)
VH: B1 VH with T112L, S117A
VL: DIVMTQSPSSLTVTAGEKVTMSCKSSQSLLDSGNQKNFLTWYQQKPGQPPKLLIFWASTRESGVPDRFTGSGSVTDFTLTISSVQAEDLAVYYCQNDYSYPCTFGGGTKLEIK
notes: the murine constant regions are not; also called murine mAb BAP049; Mu mAb
Turning to B2, the IC50 came to 0.3 nM in [2] and 0.9 nM in [8]. The Kd came out at 0.04 nM in [3], 0.4 nM in [4], 0.6 nM in experiment [5] and 0.06 nM in experiment [6]. Moreover, the “IC50 (read off the curve)” value in [7] is roughly 0.6 mg/L.

B3: humanized mAb BAP049-hum10 (antibody, human IgG4 S228P, kappa)
heavy: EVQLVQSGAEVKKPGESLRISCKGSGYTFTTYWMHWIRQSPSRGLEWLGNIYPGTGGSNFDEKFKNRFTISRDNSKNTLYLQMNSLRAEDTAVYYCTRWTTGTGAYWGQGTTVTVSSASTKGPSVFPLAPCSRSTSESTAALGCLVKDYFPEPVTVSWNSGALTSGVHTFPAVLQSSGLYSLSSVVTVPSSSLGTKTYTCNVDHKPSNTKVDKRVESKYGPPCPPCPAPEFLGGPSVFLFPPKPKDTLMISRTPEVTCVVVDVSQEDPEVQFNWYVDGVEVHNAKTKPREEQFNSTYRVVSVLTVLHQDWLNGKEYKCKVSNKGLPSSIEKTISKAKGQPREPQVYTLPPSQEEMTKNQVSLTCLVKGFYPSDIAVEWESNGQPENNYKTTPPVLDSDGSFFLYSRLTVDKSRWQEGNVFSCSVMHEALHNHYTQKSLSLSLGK
light: EIVLTQSPATLSLSPGERATLSCKSSQSLLDSGNQKNFLTWYQQKPGQAPRLLIYWASTRESGVPSRFSGSGSGTDFTFTISSLEAEDAATYYCQNDYSYPYTFGQGTKVEIKRTVAAPSVFIFPPSDEQLKSGTASVVCLLNNFYPREAKVQWKVDNALQSGNSQESVTEQDSKDSTYSLSSTLTLSKADYEKHKVYACEVTHQGLSSPVTKSFNRGEC
notes: Human IgG4(S228P), human kappa; tested as concentrated supernatant of transiently transfected CHO cells; also called Clone No. 10
As to B3, in experiment [9], the “Competition Binding 1st exp. (rank)” value stood at 6. The “IC50 (read off the curve)” value in experiment [7] is roughly 1 mg/L. Also, the “Competition Binding 2nd exp. (rank)” value in [10] was greater than 4. Moreover, in [11], the “Ranking FACS data” value was found to be 7.

In general, IC50 refers to the concentration that gives 50% inhibition. Low readings indicate greater potency, high ones weaker potency. One may read the Kd as a measure of binding affinity in units of concentration.
